{"source": "patent US20210338656A1", "about": "“IMMUNOSTIMULATORY AGENTS IN COMBINATION WITH ANGIOGENESIS INHIBITORS” (Alkermes Pharma Ireland Limited, priority 2020, published 2021)", "origin": "cited, not measured here", "molecules": {"B1": {"name": "fusion protein of SEQ ID NO: 1: circularly permuted (cp) IL-2 variant fused to the extracellular domain of the IL-2Rα portion of the IL-2 receptor (protein)", "chain": "SKNFHLRPRDLISNINVIVLELKGSETTFMCEYADETATIVEFLNRWITFSQSIISTLTGGSSSTKKTQLQLEHLLLDLQMILNGINNYKNPKLTRMLTFKFYMPKKATELKHLQCLEEELKPLEEVLNLAQGSGGGSELCDDDPPEIPHATFKAMAYKEGTMLNCECKRGFRRIKSGSLYMLCTGNSSHSSWDNQCQCTSSATRNTTKQVTPQPEEQKERKTTEMQSPMQPVDQASLPGHCREPPPWENEATERIYHFVVGQMVYYQCVQGYRALHRGPAESVCKMTHGKTRWTQPQLICTG", "modifications": "Human cpIL-2IL-2R-alpha", "notes": "circularly permuted (cp) IL-2 variant fused to the extracellular domain of the IL-2Rα portion of the IL-2 receptor"}}, "system": "CD8+ T cells, NK cells, Tregs", "details": "human patients; cited from earlier work", "data": [{"molecule": "B1", "values": [{"measurement": "activation of T regs", "result": "absence of dose dependent activation"}, {"measurement": "expansion of CD8+ T cells and NK cells", "result": "in a dose dependent manner"}, {"measurement": "relative expansion of immunosuppressive Tregs as compared to high dose rhIL-2", "result": "at least two fold less"}]}]}
